Assay [1] addresses T1, extracellular domain of human AXL protein (AXL-ECD) (human, UniProt P30530 31-449).
T1 construct: expressed in HEK293T cells; coated on the ELISA plate; also called AXL-ECD protein; human AXL extracellular domain protein
T1 sequence: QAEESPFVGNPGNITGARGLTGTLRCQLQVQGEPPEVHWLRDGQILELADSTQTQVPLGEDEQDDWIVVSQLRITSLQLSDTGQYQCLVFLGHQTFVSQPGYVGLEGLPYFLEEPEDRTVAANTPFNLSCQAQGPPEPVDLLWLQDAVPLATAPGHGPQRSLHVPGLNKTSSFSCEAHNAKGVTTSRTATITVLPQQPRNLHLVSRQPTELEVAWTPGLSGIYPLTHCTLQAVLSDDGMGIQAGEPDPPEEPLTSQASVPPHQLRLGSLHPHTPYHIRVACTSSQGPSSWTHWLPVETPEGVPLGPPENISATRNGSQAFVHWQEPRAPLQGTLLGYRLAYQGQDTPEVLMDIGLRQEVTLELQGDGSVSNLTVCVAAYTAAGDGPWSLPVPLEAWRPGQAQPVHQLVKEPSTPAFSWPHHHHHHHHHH
Kind of assay: ELISA, plate-coated AXL-ECD. As to the method: The extracellular domain of AXL protein (AXL-ECD) was diluted to […] with the coating solution, and coated onto ELISA plate with 100 μL/well at 4° C. overnight. The excess antigen was washed off. The plate was blocked with 1% BSA at room temperature for 2 h, then each monoclonal antibody in a 3-fold dilution was added at 100 µL/well. The plate was incubated at room temperature for 1 h; the unbound antibody was washed off, and appropriate concentration of anti-mouse secondary antibody labeled with horseradish peroxidase was added at 100 µL/well. The plate was incubated at room temperature for 0.5 h. The unbound secondary antibody was washed off. TMB Substrate was added and reacted for about 15 minutes. 1N HCL was added at 50 µL/well to stop the color reaction. Then the absorbance was measured at 450 nm and the obtained data was analyzed.
24 humanized antibodies in Table-6 were diluted by gradient, and their affinity to AXL-ECD protein was determined by ELISA. The experimental method was referred to Example 4.
For orientation: In an ELISA, binding on a coated surface is turned into a signal by an enzyme label.

For assay [2], the target named is T2, human AXL on the surface of tumor cells (human, UniProt P30530 26-894).
T2 construct: whole, on cells; endogenous protein of human tumor cell lines; the cell line is named under assay or readout; also called AXL on the cell surface
T2 sequence (looked up): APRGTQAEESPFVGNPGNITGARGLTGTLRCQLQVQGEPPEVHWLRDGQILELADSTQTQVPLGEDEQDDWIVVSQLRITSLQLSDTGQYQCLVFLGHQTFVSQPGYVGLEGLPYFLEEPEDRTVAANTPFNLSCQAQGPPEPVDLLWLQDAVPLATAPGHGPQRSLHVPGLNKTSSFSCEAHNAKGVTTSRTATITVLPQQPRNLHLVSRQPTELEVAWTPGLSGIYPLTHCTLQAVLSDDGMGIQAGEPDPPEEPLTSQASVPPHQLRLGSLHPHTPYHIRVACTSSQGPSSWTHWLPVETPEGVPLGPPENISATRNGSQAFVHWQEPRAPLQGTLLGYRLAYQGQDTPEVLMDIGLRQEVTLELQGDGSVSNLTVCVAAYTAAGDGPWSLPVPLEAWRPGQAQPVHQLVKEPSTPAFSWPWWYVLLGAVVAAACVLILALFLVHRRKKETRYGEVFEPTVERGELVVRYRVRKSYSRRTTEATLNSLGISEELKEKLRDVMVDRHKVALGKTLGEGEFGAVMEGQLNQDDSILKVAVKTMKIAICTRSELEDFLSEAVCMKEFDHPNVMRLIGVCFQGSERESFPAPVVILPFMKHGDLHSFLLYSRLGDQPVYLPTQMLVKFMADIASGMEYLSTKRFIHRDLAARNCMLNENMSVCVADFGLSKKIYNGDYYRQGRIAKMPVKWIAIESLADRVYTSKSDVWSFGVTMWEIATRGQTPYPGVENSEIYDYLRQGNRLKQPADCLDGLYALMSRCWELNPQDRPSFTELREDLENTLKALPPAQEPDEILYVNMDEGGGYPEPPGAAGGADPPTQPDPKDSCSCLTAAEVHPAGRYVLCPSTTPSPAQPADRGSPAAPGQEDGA
As to the kind of experiment: FACS on MDA-MB-231 cells. As to the method:
Then the obtained solutions were incubated at 4° C. for 1 h, the cells were washed twice with PBS to remove unbound primary antibody, and then the target cells were incubated with 200 μL PE-labeled secondary antibody (2 μg/mL) at 4° C. for 30 min. The cells were washed twice with PBS to remove unbound secondary antibody. Finally, the cells were resuspended in 200 μL PBS, and the binding affinity of the test antibody to AXL on the cell surface was determined by a flow cytometer (FACSCalibur)
24 humanized antibodies in Table-6 were diluted by gradient, and their affinities to AXL, on the surface of MDA-MB-231 cells were determined by flow cytometer. The experimental method was referred to Example 8.

Data on 11 molecules can be found in patent US20210214447A1 (SHANGHAI INSTITUTE OF MATERIA MEDICA CHINESE ACADEMY OF …, published 2021).

B1: Hu002-3 (antibody, V domains shown)
VH: QVQLVQSGAEVKKPGASVKVSCKASGYPFTDFYINWVKQAPGQGLEWIGWIYPGSGNTKYNEKFKGRVTLTVDTSISTAYMELSRLRSDDTAVYYCARSTGFFDYWGQGTLVTVSS
VL: EIVLTQSPATLSLSPGERATLSCSASSSIGYMYWYQQKPGQAPRLLIYLTSNLASGIPARFSGSGSGTDFTLTISSLEPEDFAVYYCQQWSSNPPTFGQGTKLEIK
notes: humanized from mAb002c; also called Hu002c-3
Consider B1, for which, in assay [1], the concentration for a half-maximal effect (EC50) stood at 0.048 nM and the “TOP (OD450)” value stood at 3.6 OD450. Also, in assay [2], the response was half-maximal at 0.108 nM (EC50) and the “Highest MFI value (FACSCalibur)” value amounted to 277 MFI.

B2: Hu002-17 (antibody, V domains shown)
VH: QVQLVQSGAEVKKPGASVKVSCKASGYPFTDFYINWVRQAPGQGLEWMGWIYPGSGNTKYNEKFKGRVTLTVDTSISTAYMELSRLRSDDTAVYYCARSTGFFDYWGQGTLVTVSS
VL: EIVLTQSPDFQSVTPKEKVTITCSASSSIGYMYWYQQKPDQSPKLLIYLTSNLASGVPSRFSGSGSGTDYTLTINSLEAEDAATYYCQQWSSNPPTFGQGTKLEIK
notes: humanized from mAb002c; also called Hu002c-17
For B2, in assay [1], the EC50 was 0.045 nM and the “TOP (OD450)” value came out at 3.71 OD450. Also, in assay [2], it took 0.107 nM to reach a half-maximal effect (EC50) and the “Highest MFI value (FACSCalibur)” value was 269 MFI.

B3: Hu002-14 (antibody, V domains shown)
VH: QVQLVQSGAEVKKPGASVKVSCKASGYPFTDFYINWVRQAPGQGLEWMGWIYPGSGNTKYNEKFKGRVTLTVDTSISTAYMELSRLRSDDTAVYYCARSTGFFDYWGQGTLVTVSS
VL: EIVLTQSPDFQSVTPKEKVTITCSASSSIGYMYWYQQKPDQSPKLLIKLTSNLASGVPSRFSGSGSGTDFTLTINSLEAEDAATYYCQQWSSNPPTFGQGTKLEIK
notes: humanized from mAb002c; also called Hu002c-14
As to B3, in assay [1], the EC50 worked out at 0.052 nM and the “TOP (OD450)” value came to 3.72 OD450. Moreover, in assay [2], the EC50 was found to be 0.094 nM and the “Highest MFI value (FACSCalibur)” value worked out at 264 MFI.

B4: Hu002-13 (antibody, V domains shown)
VH: QVQLVQSGAEVKKPGASVKVSCKASGYPFTDFYINWVRQAPGQGLEWMGWIYPGSGNTKYNEKFKGRVTMTRDTSISTAYMELSRLRSDDTAVYYCARSTGFFDYWGQGTLVTVSS
VL: EIVLTQSPDFQSVTPKEKVTITCSASSSIGYMYWYQQKPDQSPKLLIKLTSNLASGVPSRFSGSGSGTDFTLTINSLEAEDAATYYCQQWSSNPPTFGQGTKLEIK
notes: humanized from mAb002c; also called Hu002c-13
Consider B4, for which, in assay [1], the half-maximal effective concentration (EC50) turned out to be 0.047 nM and the “TOP (OD450)” value is 3.73 OD450. In assay [2], it took 0.073 nM to reach a half-maximal effect (EC50) and the “Highest MFI value (FACSCalibur)” value was 262 MFI.

B5: Hu002-11 (antibody, V domains shown)
VH: QVQLVQSGAEVKKPGASVKVSCKASGYPFTDFYINWVRQAPGQGLEWMGWIYPGSGNTKYNEKFKGRVTLTVDTSISTAYMELSRLRSDDTAVYYCARSTGFFDYWGQGTLVTVSS
VL: QIVLTQSPATLSLSPGERATLSCSASSSIGYMYWYQQKPGQSPRSLIYLTSNLASGIPARFSGSGSGTDYTLTISSLEPEDFAVYYCQQWSSNPPTFGQGTKLEIK
notes: humanized from mAb002c; also called Hu002c-11
With B5, in assay [1], the midpoint of the response, the EC50, lay at 0.043 nM and the “TOP (OD450)” value turned out to be 3.74 OD450. In assay [2], the EC50 came out at 0.123 nM and the “Highest MFI value (FACSCalibur)” value came out at 271 MFI.

B6: Hu002-7 (antibody, V domains shown)
VH: QVQLVQSGAEVKKPGASVKVSCKASGYPFTDFYINWVRQAPGQGLEWMGWIYPGSGNTKYNEKFKGRVTMTRDTSISTAYMELSRLRSDDTAVYYCARSTGFFDYWGQGTLVTVSS
VL: EIVLTQSPATLSLSPGERATLSCSASSSIGYMYWYQQKPGQSPRSLIYLTSNLASGIPARFSGSGSGTDYTLTISSLEPEDFAVYYCQQWSSNPPTFGQGTKLEIK
notes: humanized from mAb002c; also called Hu002c-7
With B6, in assay [1], the half-maximal effective concentration (EC50) came to 0.058 nM and the “TOP (OD450)” value worked out at 3.59 OD450. In assay [2], the 50% effective concentration (EC50) came to 0.129 nM and the “Highest MFI value (FACSCalibur)” value amounted to 275 MFI.

B7: Hu002-10 (antibody, V domains shown)
VH: QVQLVQSGAEVKKPGASVKVSCKASGYPFTDFYINWVRQAPGQGLEWMGWIYPGSGNTKYNEKFKGRVTMTRDTSISTAYMELSRLRSDDTAVYYCARSTGFFDYWGQGTLVTVSS
VL: QIVLTQSPATLSLSPGERATLSCSASSSIGYMYWYQQKPGQSPRSLIYLTSNLASGIPARFSGSGSGTDYTLTISSLEPEDFAVYYCQQWSSNPPTFGQGTKLEIK
notes: humanized from mAb002c; also called Hu002c-10
Regarding B7, in assay [1], the EC50 was 0.068 nM and the “TOP (OD450)” value came out at 3.58 OD450. For the same molecule, in assay [2], the 50% effective concentration (EC50) came out at 0.118 nM and the “Highest MFI value (FACSCalibur)” value was 273 MFI.

B8: Hu002-8 (antibody, V domains shown)
VH: QVQLVQSGAEVKKPGASVKVSCKASGYPFTDFYINWVRQAPGQGLEWMGWIYPGSGNTKYNEKFKGRVTLTVDTSISTAYMELSRLRSDDTAVYYCARSTGFFDYWGQGTLVTVSS
VL: EIVLTQSPATLSLSPGERATLSCSASSSIGYMYWYQQKPGQSPRSLIYLTSNLASGIPARFSGSGSGTDYTLTISSLEPEDFAVYYCQQWSSNPPTFGQGTKLEIK
notes: humanized from mAb002c; also called Hu002c-8
For B8, in assay [1], the 50% effective concentration (EC50) amounted to 0.049 nM and the “TOP (OD450)” value came out at 3.59 OD450. Further, in assay [2], the EC50 turned out to be 0.138 nM and the “Highest MFI value (FACSCalibur)” value turned out to be 270 MFI.

B9: Hu002-6 (antibody, V domains shown)
VH: QVQLVQSGAEVKKPGASVKVSCKASGYPFTDFYINWVKQAPGQGLEWIGWIYPGSGNTKYNEKFKGRVTLTVDTSISTAYMELSRLRSDDTAVYYCARSTGFFDYWGQGTLVTVSS
VL: EIVLTQSPATLSLSPGERATLSCSASSSIGYMYWYQQKPGQAPRLLIYLTSNLASGIPARFSGSGSGTDYTLTISSLEPEDFAVYYCQQWSSNPPTFGQGTKLEIK
notes: humanized from mAb002c; also called Hu002c-6
As for B9, in assay [1], the concentration for a half-maximal effect (EC50) is 0.052 nM and the “TOP (OD450)” value was 3.63 OD450. Further, in assay [2], it took 0.101 nM to reach a half-maximal effect (EC50) and the “Highest MFI value (FACSCalibur)” value amounted to 271 MFI.

B10: Hu002-9 (antibody, V domains shown)
VH: QVQLVQSGAEVKKPGASVKVSCKASGYPFTDFYINWVKQAPGQGLEWIGWIYPGSGNTKYNEKFKGRVTLTVDTSISTAYMELSRLRSDDTAVYYCARSTGFFDYWGQGTLVTVSS
VL: EIVLTQSPATLSLSPGERATLSCSASSSIGYMYWYQQKPGQSPRSLIYLTSNLASGIPARFSGSGSGTDYTLTISSLEPEDFAVYYCQQWSSNPPTFGQGTKLEIK
notes: humanized from mAb002c; also called Hu002c-9
In the case of B10, in assay [1], the half-maximal effective concentration (EC50) turned out to be 0.067 nM and the “TOP (OD450)” value was found to be 3.62 OD450. In assay [2], the 50% effective concentration (EC50) stood at 0.121 nM and the “Highest MFI value (FACSCalibur)” value turned out to be 268 MFI.

B11: Hu002-12 (antibody, V domains shown)
VH: QVQLVQSGAEVKKPGASVKVSCKASGYPFTDFYINWVKQAPGQGLEWIGWIYPGSGNTKYNEKFKGRVTLTVDTSISTAYMELSRLRSDDTAVYYCARSTGFFDYWGQGTLVTVSS
VL: QIVLTQSPATLSLSPGERATLSCSASSSIGYMYWYQQKPGQSPRSLIYLTSNLASGIPARFSGSGSGTDYTLTISSLEPEDFAVYYCQQWSSNPPTFGQGTKLEIK
notes: humanized from mAb002c; also called Hu002c-12
As for B11, in assay [1], a half-maximal response (EC50) required 0.045 nM and the “TOP (OD450)” value turned out to be 3.73 OD450. In assay [2], the midpoint of the response, the EC50, lay at 0.116 nM and the “Highest MFI value (FACSCalibur)” value came out at 261 MFI.

The EC50 is the midpoint of the concentration-response curve. A low value points to greater potency.
